Data on 1 protein can be found in article doi:10.1101/2021.10.14.464379 (bioRxiv, 2021).

In general, stoichiometry N refers to the number of molecules, sites or subunits per partner or assembly.

The data set deals with the molecule itself. Kind of data set: SAXS.

B1: Ipomoea batatas BAM5 (sweet potato beta-amylase) (enzyme)
chain: APIPGVMPIGNYVSLYVMLPLGVVNADNVFPDKEKVEDELKQVKAGGCDGVMVDVWWGIIEAKGPKQYDWSAYRELFQLVKKCGLKIQAIMSFHQCGGNVGDAVFIPIPQWILQIGDKNPDIFYTNRAGNRNQEYLSLGVDNQRLFQGRTALEMYRDFMESFRDNMADFLKAGDIVDIEVGCGAAGELRYPSYPETQGWVFPGIGEFQCYDKYMVADWKEAVKQAGNADWEMPGKGAGTYNDTPDKTEFFRPNGTYKTDMGKFFLTWYSNKLIIHGDQVLEEANKVFVGLRVNIAAKVSGIHWWYNHVSHAAELTAGFYNVAGRDGYRPIARMLARHHATLNFTCLEMRDSEQPAEAKSAPQELVQQVLSSGWKEYIDVAGENALPRYDATAYNQMLLNVRPNGVNLNGPPKLKMSGLTYLRLSDDLLQTDNFELFKKFVKKMHADLDPSPNAISPAVLERSNSAITIDELMEATKGSRPFPWYDVTDMPVDGSNPFD
Consider B1, for which the “stoichiometry N” value was 4.
